Experimental findings from paper PMC8406172, “Mechanism of DNA Interaction and Translocation by the Replicase of a Circular Rep-Encoding Single-Stranded DNA Virus” (mBio, 2021) are described below.

In data set [1] the test system is Nc1nc2c(ncn2[C@@H]2O[C@H](COP(=O)(O)OP(=O)(O)OP(=O)(O)O)[C@@H](O)[C@H]2O)c(=O)[nH]1. Put plainly: purified protein. To be noted: 66 nM Rep, room temperature; copurifying DNA present.
Excerpt: (§1) NTP/NADH-coupled spectrophotometric assay (pyruvate kinase / lactate dehydrogenase) on PCV2 Rep (replicase)
Data set [2] deals with Nc1ccn([C@@H]2O[C@H](COP(=O)(O)OP(=O)(O)OP(=O)(O)O)[C@@H](O)[C@H]2O)c(=O)n1. Briefly: purified protein. To be noted: 66 nM Rep, room temperature; copurifying DNA present.
Excerpt: as §1
The subject of data set [3] is O=c1ccn([C@@H]2O[C@H](COP(=O)(O)OP(=O)(O)OP(=O)(O)O)[C@@H](O)[C@H]2O)c(=O)[nH]1. Briefly: purified protein. To be noted: 66 nM Rep, room temperature; copurifying DNA present.
Excerpt: as §1
The target of data set [4] is porcine circovirus 2 (PCV2) replicase (Rep) (porcine circovirus 2 (PCV2b)). Briefly: cryo-EM structure.

With “PCV2 Rep (replicase) (Porcine circovirus 2)”, the results for the K0.5 in data set [1], in data set [2] and in data set [3] were 577.2 µM, 284.4 µM and 78.5 µM, respectively. The catalytic constant (kcat) in data set [1] turned out to be 0.56 s⁻¹; in data set [2], 0.16 s⁻¹; in data set [3], 0.24 s⁻¹.

On to “porcine circovirus 2 (PCV2) replicase (Rep) (enzyme)”, for which the stoichiometry N in data set [4] was found to be 6.

The kcat is the maximal rate divided by the concentration of active sites. The term stoichiometry N denotes a count of units in the complex or per binding partner.
